# Assay: soluble on expression in E. coli; label from the status in PepcDB or PDB records
row,Sequence,soluble on expression in E. coli
1,MDVIRSSASDILGALRSRQLSSEAVMEATLARIAAVNPELNAIVALRPTDELLAEARAADAVAPEARGALHGLPIAVKDLVETAGIVSSHGSPLFRDHVPERDDLIAARIRAAGAILIGKTNVPEFGLGSHTFNPVYGATGNPYAPNLTCGGSSGGAAVALATGMTALADGSDMMGSLRNPAAWCNVYGFRPSWGRVPSEPLGDTFLHQLATLGPMGRSPADIAILLDVISGADPRQPHGFDSAPVAPLRPAATRGLRLGWLGDWGGAFPTEPGILPLCETALKIFSDLGCTVEKVPPPFDAEALWESWITLRSWSVGAGLAPLSEKRAQLKDSAQWELDRGLALSAMEVDRASVTRSAWFMRATELFESYDALILPSAQVWPFDLDRPYPTEIAGQAMDTYHRWMQVVTPVSLIGLPSLAMPAGFGDAGLPMGVQIFGPRGGDAALLALGEAYHAATTWPQRHP,not soluble
2,MEKITFEQVKEAVFHEKMSNGLQVYLLPKQGFSKTYAVFTTNYGAIDNNFVPIGETEFTKVPDGIAHFLEHKMFEKEDGDVFFKFGEKGAFTNAFTSFTKTAYLFSSTSRVEENLETLIDFVQEPYFTEETVEKEKGIIGQEIRMYDDDPDFRAYFGVIENMYHNHPVKIDIAGTVESIAEINKDLLYLCYNTFYHPSNMVLFVVGNLEPEEMMNQIRANQAKKDFTEAAPIKRHFPEEPKTVAVKERKIHFPVQIAKNMVGIKEDIGSLEGQVALKQEIIGDVALEMLFGTTSDTYLELYNQGIIDDSFGYDYTLQDSFSFVLVGGDAKDPDMQTTKIIEAIQAAAKNGLNEADLALVKRKRIGQFLRSLNSPEFIANQFSQYVMKSASLFDILPLMETVTLEEVNNFVKNLDSEERTTSFQLLPEK,not soluble
3,SLNEGQEMEEQFALLLETLKNQQMNEFRELFLALHIYEQGQFYQSLDEKDRQHLYNYLSPKELADMFDVIEEDNENMKDYLAEMRPSYAADMLAEMYTDNAVDLLNMLDKSQKAKYLSLLSSEEAGEIKELLHYEDETAGAIMTTEFVSIVANQTVRSAMYVLKNQADMAETIYYVYVVDQENHLVGVISLRDLIVNDDDTLIADILNERVISVHVGDDQEDVAQTIRDYDFLAVPVTDYDDHLLGIVTVDDIIDVIDDEAASDYSGLAGVDVEEVSENPLKAASK,soluble
4,SGGGGKAWPTHVVCSDSGLEVLYQSCDPLQDFGFSVEKCSKQLKSNINIRFGIILREDIKELFLDLALMSQGSSVLNFSYPICEAALPKFSFCGRRKGEQIYYAGPVNNPEFTIPQGEYQVLLELYTEKRSTVACANATIMCS,soluble
5,TETTSFLITKFSPDQQNLIFQGDGYTTKEKLTLTKAVKNTVGRALYSSPIHIWDRETGNVANFVTSFTFVINAPNSYNVADGFTFFIAPVDTKPQTGGGYLGVFNSAEYDKTTQTVAVEFDTFYNAAWDPSNRDRHIGIDVNSIKSVNTKSWKLQNGEEANVVIAFNAATNVLTVSLTYPN,soluble
6,MNGLLKYSFPICFSLLALFACEDDGIDVDNIEVPAGFALSAGTATNFLTSSYAYDRSADWITGAYDKRFTRGDKLYDDIRTSSNGIGGGLGPVYAGYSCGSCHRNAGRTQPTLWSEGGSGSSGFSSMLVYISRKNGAFFQDYGRVLHDQAIYGVKPEGKLKVEYTYETFQFPDGETYELCKPNYSIYEWYADSIKPEDLFCTVRIPLRHVGMGQMMALDPTEIEALAAKSNYPEYGISGRCNYISERGMRSLGLSGNKAQHADLTVELGFSSDMGVTNSRYPEEICEGQAQVNQGSMMGLSYAQLDVSTEEMENVDLYMQSLSVPARRNVNNEQVIKGEQNFYKAKCHLCHVTTLHTKPRGSILLNGTRLPWLGSQTIHPYSDFLLHDMGSEIMGVGLNDNYVSGLARGNEWRTTPLWGIGLQETVNGHTYFLHDGRARNYIEAIMWHGGEGEASKNLFKKMSKEDRNALVAFLKSL,not soluble
7,MAGDPMNVEGMATGGIHMELHCPQCQHVLDQDNGHARCRSCGEFIEMKALCPDCHQPLQVLKACGAVDYFCQHGHGLISKKRVEFVLALEHHHHHH,not soluble
8,MRVHKVKFLNQHELTKLLALLDLDHGLDWDYFLLLIAKTGLRFGEALGVTPMDFDMAKLTLTINKTWDYKSATGSFAETKNTASVRKVPLDWQVAMQFAAQIKSLPQDKPIFVTDGQRVYNETANDILERKCKRASIPVISIHGLRHTHASLLLYAGVSVGSVARRLGHANMSTTQKTYLHILEHHHHHH,not soluble

# — the DeepSol protein solubility set
